Like-named read-outs stand apart in the source and are kept apart here.
Assays:
Assay in all cases: ELISA, antigen captured by anti-His antibody on plate, HRP anti-IgG Fc detection
[1] = biological target: Human VEGF121/VEGF-A protein (human VEGF 121 isoform) with 6-His tag (human) (UniProt P15692)
[2] = biological target: Human VEGF121/VEGF-A protein (human VEGF 121 isoform) with 6-His tag (human) (UniProt P15692); remark: listed apart in the source
[3] = biological target: Human VEGF121/VEGF-A protein (human VEGF 121 isoform) with 6-His tag (human) (UniProt P15692); remark: listed apart in the source
[4] = biological target: Human VEGF121/VEGF-A protein (human VEGF 121 isoform) with 6-His tag (human) (UniProt P15692); remark: listed apart in the source

Human VEGF121/VEGF-A protein (human VEGF 121 isoform) with 6-His tag (human), sequence (P15692 other isoform, or with tags, fused parts or gaps limits assumed): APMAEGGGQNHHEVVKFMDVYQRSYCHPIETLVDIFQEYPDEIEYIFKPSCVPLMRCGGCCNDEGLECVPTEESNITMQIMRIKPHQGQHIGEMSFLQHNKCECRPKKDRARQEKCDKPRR
Aflibercept (VEGFR-Fc) (Fc fusion), sequence (chain): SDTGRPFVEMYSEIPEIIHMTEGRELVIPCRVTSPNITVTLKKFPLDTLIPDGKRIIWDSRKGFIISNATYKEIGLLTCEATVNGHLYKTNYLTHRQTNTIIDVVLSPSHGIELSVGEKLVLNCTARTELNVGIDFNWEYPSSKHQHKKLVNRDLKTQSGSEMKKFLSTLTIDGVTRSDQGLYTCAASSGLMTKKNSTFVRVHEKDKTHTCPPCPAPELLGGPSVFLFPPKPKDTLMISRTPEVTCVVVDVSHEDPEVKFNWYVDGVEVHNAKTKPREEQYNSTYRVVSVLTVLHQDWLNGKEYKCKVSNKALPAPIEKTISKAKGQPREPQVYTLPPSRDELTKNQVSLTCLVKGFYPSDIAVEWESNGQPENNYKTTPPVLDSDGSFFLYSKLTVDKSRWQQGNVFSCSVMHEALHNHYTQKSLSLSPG

EC50 [1]: 12.2 nM
EC50 [2]: 10.5 nM
EC50 [3]: 15.3 nM
EC50 [4]: 21.4 nM
Substance: Aflibercept (VEGFR-Fc) (Fc fusion)
